The results in this text go back to paper PMC4375503, “Structural Insights into the Autoregulation and Cooperativity of the Human Transcription Factor Ets-2*”.

The target of data set [1] is T1, Ets-2 325-464 (core Ets and autoinhibition domains) (Homo sapiens, UniProt P15036 325-464).
T1 sequence: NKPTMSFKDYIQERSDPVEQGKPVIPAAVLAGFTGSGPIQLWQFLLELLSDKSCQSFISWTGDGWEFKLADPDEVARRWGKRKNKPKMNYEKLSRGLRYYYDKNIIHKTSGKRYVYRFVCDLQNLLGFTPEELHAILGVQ
Put plainly: X-ray crystallography; 2.5 A; 3 Ets-2 and 3 duplexes per asymmetric unit; pH 5.5; EMSA: 50 mM Tris-HCl pH 7.5, 25 mM NaCl, 50 mM L-arginine-HCl, 0.5 mM EDTA, 0.1% Tween 20, 2 mM DTT, 5% glycerol, room temperature 15 min; probe 0.1 nM (Ets-2). The settings on record: protein: recombinant; tags: His tag removed by TEV; blunt. On the technique in general: In EMSA bound probe runs differently from free probe, usually more slowly.

For data set [2], the target named is T2, Ets-1 short (equivalent of Ets-2 360-464) (Mus musculus, UniProt P27577 331-440).
T2 sequence: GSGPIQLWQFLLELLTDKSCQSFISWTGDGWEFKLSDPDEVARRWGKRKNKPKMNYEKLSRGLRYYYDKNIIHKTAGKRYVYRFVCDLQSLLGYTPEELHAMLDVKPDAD
Put plainly: EMSA; apparent Kd; EMSA: 50 mM Tris-HCl pH 7.5, 25 mM NaCl, 50 mM L-arginine-HCl, 0.5 mM EDTA, 0.1% Tween 20, 2 mM DTT, 5% glycerol, room temperature 15 min; probe 0.1 nM (Ets-2). The settings on record: protein: recombinant; tags: His tag removed by TEV; label: 5'-32P on strand 1; blunt.

The target in data set [3] is T3, Ets-2 360-464 (core Ets domain) (Homo sapiens, UniProt P15036 360-464).
T3 sequence: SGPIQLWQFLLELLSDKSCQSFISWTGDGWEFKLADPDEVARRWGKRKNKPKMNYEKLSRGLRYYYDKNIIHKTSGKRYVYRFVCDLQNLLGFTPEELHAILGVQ
The description is as above. The following applies: protein: recombinant; tags: His tag removed by TEV; label: 5'-32P on strand 1; blunt.

B1: crystallization 10-mer (dsDNA)
DNA 1: ACCGGAAGTG
DNA 2: CACTTCCGGT
Turning to B1, the binding result in data set [1] is on record as “binds”.

B2: single-site EMSA probe (dsDNA)
DNA 1: ATCTCACCGGAAGTGTAGCA
DNA 2: TGCTACACTTCCGGTGAGAT
As for B2, the Kd in data set [2] was 0.1 ± 0.06 nM; in data set [3], 0.4 ± 0.04 nM.
